Target: human tau(pS422) (Homo sapiens, UniProt P10636, S739X)
Test: BIAcore kinetic screening and kinetic rates of humanized VH/VL combinations
Assay type: binding
Settings: 25 °C; VL17 or VL19 with VH variants
Method: In the following Table characteristics of the different humanized variants of the rabbit light chain variable domain in combination with the humanized heavy chain variable domains VH14 and VH20, respectively, are shown. Binding partner was human tau(pS422).
Kinetic screening was performed according to Schraeml et al. (Schraeml, M. and M. Biehl, Methods Mol. Biol. 901 (2012) 171-181) on a BIAcore 4000 instrument, mounted with a BIAcore CM5 sensor. The BIAcore 4000 instrument was under the control of the software version V1.1. A BIAcore CM5 series S chip was mounted into the instrument and was hydrodynamically addressed and preconditioned according to the manufacturer's instructions. The instrument buffer was HBS-EP buffer (10 mM HEPES (pH 7.4), 150 mM NaCl, 1 mM EDTA, 0.05% (w/v) P20). An antibody capture system was prepared on the sensor surface. A polyclonal goat anti-human antibody with human IgG-Fc specificity (Jackson Lab.) was immobilized at 30 μg/ml in 10 mM sodium acetate buffer (pH 5) to spots 1, 2, 4 and 5 in the instrument's flow cells 1, 2, 3 and 4 at 10,000 RU using NHS/EDC chemistry. In each flow cell the antibodies were captured on spot 1 and spot 5. Spot 2 and spot 4 were used as reference spots. The sensor was deactivated with a 1 M ethanolamine solution. Humanized antibody derivatives were applied at concentrations between 44 nM and 70 nM in instrument buffer supplemented with 1 mg/ml CMD (carboxymethyldextrane). The antibodies were injected at a flow rate of 30 μl/min for 2 minutes. The capture level (CL) of the surface-presented antibodies was measured in rel. response units (RU). The analytes in solution, phosphorylated human tau protein, non-phosphorylated human tau protein and the phosphorylated human tau mutant protein T422S were injected at 300 nM for 3 minutes at a flow rate of 30 μl/minute. The dissociation was monitored for 5 minutes. The capture system was regenerated by a 1 minute injection of 10 mM glycine buffer, pH 1.7 at 30 μL/minute over all flow cells. Two report points, the recorded signal shortly before the end of the analyte injection, denoted as binding late (BL) and the recorded signal shortly before the end of the dissociation time, stability late (SL), were used to characterize the kinetic screening performance. Furthermore, the dissociation rate constant kd (1/s) was calculated according to a Langmuir model and the antibody/antigen complex half-life was calculated in minutes according to the formula ln(2)/(60*kd). The molar ratio (MR) was calculated according to the formula MR=(Binding Late (RU))/(Capture level (RU))*(MW(antibody)/(MW(antigen)). In case the sensor was configured with a suitable amount of antibody ligand capture level, each antibody should be able to functionally bind at least to one analyte in solution, which is represented by a molar ratio of MR=1.0. Then, the molar ratio is also an indicator for the valence mode of analyte binding. The maximum valence can be MR=2 for an antibody binding two analytes, one with each Fab valence.
In another embodiment, kinetic rates were determined at 25° C. and 37° C. using the same experimental setup, but using multiple concentration series of each analyte in solution at 0 nM (buffer), 1.2 nM, 3.7 nM, 11.1 nM, 33.3 nM, 100 nM and 300 nM. From the concentration-dependent binding behavior the kinetic data was calculated using the BIAcore evaluation software according to the manufacturer's instructions and a Langmuir 1.1 model with RMAX global.

Row | Molecule | kd [s⁻¹] | t/2 diss [min]
1 | VL17 with VH24: anti-human tau(pS422) antibody; VH SEQ ID NO: 56, VL SEQ ID NO: 37 (antibody, V domains shown, humanized sequence) VH: EVQLLESGGGLVQPGGSLRLSCAASGFSLSSNAINWVRQAPGKGLEWVGYIAVSGNTYYADSVKGRFTISKDNSKNTVYLQMNSLRAEDTAVYYCGKSNIWGQGTLVTVSS VL: DIQMTQSPSSLSASVGDRVTITCRSSQSVRTNKLAWFQQKPGQPPKRLIYSASTLDFGVPSRFSGSGSGTEFTLTISSLQPEDFATYYCLGYFDCSIADCVAFGGGTKVEIK | 0.00079 | 15
2 | VL17 with VH03: anti-human tau(pS422) antibody; VH SEQ ID NO: 48, VL SEQ ID NO: 37 (antibody, V domains shown, humanized sequence) VH: QSVLESGGGLVQPGGSLRLSCAVSGFSLSSNAINWVRQAPGKGLEWVGYIAVSGNTYYASWAKGRFTISRDNSKNTLYLQMNSLRAEDTAVYYCGKSNIWGPGTLVTVSS VL: DIQMTQSPSSLSASVGDRVTITCRSSQSVRTNKLAWFQQKPGQPPKRLIYSASTLDFGVPSRFSGSGSGTEFTLTISSLQPEDFATYYCLGYFDCSIADCVAFGGGTKVEIK | 0.00393 | 3
3 | VL19 with VH19: anti-human tau(pS422) antibody; VH SEQ ID NO: 53, VL SEQ ID NO: 38 (antibody, V domains shown, humanized sequence) VH: QQLVESGGGLVQPGGSLRLSCAASGFSLSSNAINWVRQAPGKGLEWVGYIAVSGNTYYADSVKGRFTISKDNSKNTLYLQMNSLRAEDTAVYYCGKSNIWGQGTLVTVSS VL: AQVMTQSPSSLSASVGDRVTITCRSSQSVRTNKLAWFQQKPGQPPKRLIYSASTLDFGVPSRFSGSGSGTEFTLTISSLQPEDFATYYCLGYFDCSIADCVAFGGGTKVEIK | 0.002 | 6
4 | VL19 with VH24: anti-human tau(pS422) antibody; VH SEQ ID NO: 56, VL SEQ ID NO: 38 (antibody, V domains shown, humanized sequence) VH: EVQLLESGGGLVQPGGSLRLSCAASGFSLSSNAINWVRQAPGKGLEWVGYIAVSGNTYYADSVKGRFTISKDNSKNTVYLQMNSLRAEDTAVYYCGKSNIWGQGTLVTVSS VL: AQVMTQSPSSLSASVGDRVTITCRSSQSVRTNKLAWFQQKPGQPPKRLIYSASTLDFGVPSRFSGSGSGTEFTLTISSLQPEDFATYYCLGYFDCSIADCVAFGGGTKVEIK | 0.00063 | 18
5 | VL17 with VH02: anti-human tau(pS422) antibody; VH SEQ ID NO: 47, VL SEQ ID NO: 37 (antibody, V domains shown, humanized sequence) VH: QSVLESGGGLVQPGGSLRLSCAASGFSLSSNAINWVRQAPGKGLEWVGYIAVSGNTYYASWAKGRFTISRDNSKNTLYLQMNSLRAEDTAVYYCGKSNIWGPGTLVTVSS VL: DIQMTQSPSSLSASVGDRVTITCRSSQSVRTNKLAWFQQKPGQPPKRLIYSASTLDFGVPSRFSGSGSGTEFTLTISSLQPEDFATYYCLGYFDCSIADCVAFGGGTKVEIK | 0.00371 | 3
6 | VL17 with VH00: anti-human tau(pS422) antibody; VH SEQ ID NO: 11, VL SEQ ID NO: 37 (antibody, listed as Oryctolagus cuniculus, V domains shown, humanized sequence) VH: QSVEESGGRLVTPGTPLTLTCTVSGFSLSSNAINWVRQAPGKGLEWIGYIAVSGNTYYASWAKGRFTISKASTTVDLKMTSPTAEDTGTYFCGKSNIWGPGTLVTVSL VL: DIQMTQSPSSLSASVGDRVTITCRSSQSVRTNKLAWFQQKPGQPPKRLIYSASTLDFGVPSRFSGSGSGTEFTLTISSLQPEDFATYYCLGYFDCSIADCVAFGGGTKVEIK | 0.000498 | 23
7 | VL17 with VH01: anti-human tau(pS422) antibody; VH SEQ ID NO: 46, VL SEQ ID NO: 37 (antibody, V domains shown, humanized sequence) VH: QQLVESGGGLVQPGGSLRLSCAASGFSLSSNAINWVRQAPGKGLEWVGYIAVSGNTYYASWAKGRFTISRDNSKNTLYLQMNSLRAEDTAVYYCGKSNIWGQGTLVTVSS VL: DIQMTQSPSSLSASVGDRVTITCRSSQSVRTNKLAWFQQKPGQPPKRLIYSASTLDFGVPSRFSGSGSGTEFTLTISSLQPEDFATYYCLGYFDCSIADCVAFGGGTKVEIK | 0.0023 | 5
8 | VL19 with VH18: anti-human tau(pS422) antibody; VH SEQ ID NO: 52, VL SEQ ID NO: 38 (antibody, V domains shown, humanized sequence) VH: QQLVESGGGLVQPGGSLRLSCAASGFSLSSNAINWVRQAPGKGLEWVGYIAVSGNTYYADSVKGRFTISRDNSKNTLYLQMNSLRAEDTAVYYCGKSNIWGQGTLVTVSS VL: AQVMTQSPSSLSASVGDRVTITCRSSQSVRTNKLAWFQQKPGQPPKRLIYSASTLDFGVPSRFSGSGSGTEFTLTISSLQPEDFATYYCLGYFDCSIADCVAFGGGTKVEIK | 0.0019 | 6
9 | VL17 with VH04: anti-human tau(pS422) antibody; VH SEQ ID NO: 49, VL SEQ ID NO: 37 (antibody, V domains shown, humanized sequence) VH: QSVLESGGGLVQPGGSLRLSCAVSGFSLSSNAINWVRQAPGKGLEWVGYIAVSGNTYYASWAKGRFTISRDSTTLYLQMNSLRAEDTAVYYCGKSNIWGPGTLVTVSS VL: DIQMTQSPSSLSASVGDRVTITCRSSQSVRTNKLAWFQQKPGQPPKRLIYSASTLDFGVPSRFSGSGSGTEFTLTISSLQPEDFATYYCLGYFDCSIADCVAFGGGTKVEIK | 0.00416 | 3
10 | VL19 with VH23: anti-human tau(pS422) antibody; VH SEQ ID NO: 55, VL SEQ ID NO: 38 (antibody, V domains shown, humanized sequence) VH: EVQVLESGGGLVQPGGSLRLSCAVSGFSLSSNAINWVRQAPGKGLEWVGYIAVSGNTYYADSVKGRFTISKDNSKNTVYLQMNSLRAEDTAVYYCGKSNIWGQGTLVTVSS VL: AQVMTQSPSSLSASVGDRVTITCRSSQSVRTNKLAWFQQKPGQPPKRLIYSASTLDFGVPSRFSGSGSGTEFTLTISSLQPEDFATYYCLGYFDCSIADCVAFGGGTKVEIK | 0.00057 | 20
11 | VL19 with VH22: anti-human tau(pS422) antibody; VH SEQ ID NO: 54, VL SEQ ID NO: 38 (antibody, V domains shown, humanized sequence) VH: EVQLLESGGGLVQPGGSLRLSCAASGFSLSSNAINWVRQAPGKGLEWVGYIAVSGNTYYADSVKGRFTISRDNSKNTLYLQMNSLRAEDTAVYYCGKSNIWGQGTLVTVSS VL: AQVMTQSPSSLSASVGDRVTITCRSSQSVRTNKLAWFQQKPGQPPKRLIYSASTLDFGVPSRFSGSGSGTEFTLTISSLQPEDFATYYCLGYFDCSIADCVAFGGGTKVEIK | 0.0021 | 6
12 | VL19 with VH01: anti-human tau(pS422) antibody; VH SEQ ID NO: 46, VL SEQ ID NO: 38 (antibody, V domains shown, humanized sequence) VH: QQLVESGGGLVQPGGSLRLSCAASGFSLSSNAINWVRQAPGKGLEWVGYIAVSGNTYYASWAKGRFTISRDNSKNTLYLQMNSLRAEDTAVYYCGKSNIWGQGTLVTVSS VL: AQVMTQSPSSLSASVGDRVTITCRSSQSVRTNKLAWFQQKPGQPPKRLIYSASTLDFGVPSRFSGSGSGTEFTLTISSLQPEDFATYYCLGYFDCSIADCVAFGGGTKVEIK | 0.0019 | 6

Reference: patent US10251952B2, “Humanized anti-tau(pS422) antibody brain shuttles and use thereof” (Hoffmann-La Roche Inc., priority 2014, dated 2019)
